# Test results: patent publication US20200054764A1, “MEDICAL USE OF ANTI-C MET ANTIBODY-CYTOTOXIC DRUG CONJUGATE” (priority 2016, published 2020)
# B1: Ab-9 (antibody)
# heavy: QVTLKESGPVLVKPTETLTLTCTVSGFSLPNYGVHWVRQPPGKALEWLAVIWSGGSTNYAAAFVSRLRISKDTSKSQVVFTMNNMDPVDTATYYCARNHDNPYNYAMDYWGQGTTVTVSSASTKGPSVFPLAPCSRSTSESTAALGCLVKDYFPEPVTVSWNSGALTSGVHTFPAVLQSSGLYSLSSVVTVPSSNFGTQTYTCNVDHKPSNTKVDKTVERKCCVECPPCPAPPVAGPSVFLFPPKPKDTLMISRTPEVTCVVVDVSHEDPEVQFNWYVDGVEVHNAKTKPREEQFNSTFRVVSVLTVVHQDWLNGKEYKCKVSNKGLPAPIEKTISKTKGQPREPQVYTLPPSREEMTKNQVSLTCLVKGFYPSDIAVEWESNGQPENNYKTTPPMLDSDGSFFLYSKLTVDKSRWQQGNVFSCSVMHEALHNHYTQKSLSLSPGK
# light: DIVLTQSPASLAVSPGQRATITCRANKSVSTSTYNYLHWYQQKPGQPPKLLIYLASNLASGVPARFSGSGSGTDFTLTINPVEANDTANYYCQHSRDLPPTFGQGTKLEIKRTVAAPSVFIFPPSDEQLKSGTASVVCLLNNFYPREAKVQWKVDNALQSGNSQESVTEQDSKDSTYSLSSTLTLSKADYEKHKVYACEVTHQGLSSPVTKSFNRGEC
# How the values were obtained:
# [1] = tested on: MKN45 cells expressing c-Met; experiment: Endocytosis of anti c-Met antibody in MKN45 cells (FACS); assay type: cell-based, human; conditions: MKN45, 10 μg/mL antibody
# From the text: Antibodies of the invention bind to human c-Met, and have very good in vitro activity and good activity in inhibiting tumor activity in vivo. […] In order to detect whether the antibodies would be internalized into the cell along with human c-Met once bound to human c-Met, human gastric cancer cell line MKN45 (JCRB, Cat No.: JCRB0254) expressing c-Met was used for evaluation.
# MKN45 cells were resuspended to 10,000,000 cells/mL in RPMI 1640 medium (GIBCO, Cat No.: 11835-030), which contains 10% (v/v) FBS (GIBCO, Cat No.: 10099-141) and penicillin/streptomycin (GIBCO, Cat No.: 15070-063). 2 mL resuspended MKN45 cells were added to a 96-well microtiter plate with 250,000 cells/well, and 10 μg/mL of c-Met antibody was added to the corresponding wells and the final volume was 100 μL. The plate was incubated at 4° C. for 1 hour. FACS buffer (phosphate buffer solution including 2.5% fetal bovine serum; Hyclone, Cat: SH30256.01B) was added and the plate was centrifuged at 4° C., 1300 rpm for 4 minutes. The supernatant was discarded and this procedure was repeated three times. 100 μL secondary antibody solution (Fluorescence labeled goat anti mouse secondary antibodies at 1:200 dilution, Biolegend, Cat #405307; Fluorescence labeled anti-human secondary antibody at 1:30 dilution, Biolegend, Cat #409304) was added into each well. The plate was incubated at 4° C. for 1 hour. FACS buffer was added and the plate was centrifuged at 4° C., 1300 rpm for 4 minutes. The supernatant was discarded and this procedure was repeated three times. Complete cell culture medium (RPMI 1640 medium with 10% FBS) was added and was incubated at 37° C. in 5% CO2 for 0, 0.5, 1, 2, 4 hours. 5 μL 7-AAD (Biolegend, Cat:420403) was added to 100 μL FACS buffer which was added to each well, and the plate was incubated at 4° C. for 30 minutes. FACS buffer was added and the plate was centrifuged at 4° C., 1300 rpm for 4 minutes. The supernatant was discarded and this procedure was repeated three times. 200 μL Stripping buffer (0.05 M glycine, pH 3.0; 0.1 M NaCl, mixed at 1:1 (v/v)) was added to each well. The cells were resuspended and were incubated for 7 minutes at room temperature. The cells were centrifuged at room temperature at 1300 rpm for 4 minutes, and the supernatant was discarded. 200 μL neutralizing wash buffer (0.15M trihydroxymethyl aminomethane, pH 7.4) was added to each well, the cells were resuspended and centrifuged at room temperature at 1300 rpm for 4 minutes, and the supernatant was discarded. 200 μL FACS buffer was added and the cells were resuspended. The prepared samples were detected by flow cytometry (BD FACS Calibur).
# Endocytosis of c-Met antibody %=(intensity of fluorescence at each time point−mean intensity of fluorescence at time 0)/mean intensity of fluorescence at time 0.
# [2] = Biophysical stability: deamination by LC-MS; assay type: physicochemical; conditions: 4° C., 3.5 months
# Description: To evaluate the biophysical stability of the anti c-Met antibodies of the invention, such as the presence of glycosylation and deamination sites and stability, LC-MS analysis was used.
# The molecular weight of the heavy and light chains was directly detected by LC-MS to analyze glycosylation. Deamination was analyzed by LC-MS at 4° C. for long time (at least 3 months), or at 40° C. for 21 days under an accelerated condition. Samples treated with different conditions were diluted to 2 mg/mL with pH 7.2 Tris-HCl; final concentrations of 10 mM of TCEP and 6M of urea (AMRESCO, Cat #0378)3 were added, then the samples were incubated for 20 minutes at 37° C. IAA (Sigma-Aldrich, Cat # I1149) with a final concentration of 20 mM was added and was incubated for 15 minutes in darkness to protect the sulfhydryl group. The pH of the sample was adjusted by dilution with Tris-HCl, pH 7.2, and protease (Sigma-Aldrich, Cat # T6567) was added at a ratio by weight of 10:1 (protein: enzyme). The samples were incubated at 37° C. for 25 minutes, and then formic acid with a final concentration of 0.1% (Fluca, Cat #94318) was added to terminate the reactions. Samples were centrifuged and analyzed by LC-MS.
# BiopharmaLynx was used to analyze the presence of deamination. […] Peak area was obtained by integration, and the percentages of deamination and oxidation product were calculated.
# [3] = target: T1, c-Met antigen Sema-His (Homo sapiens, UniProt P08581); experiment: SPR (BIACore) affinity to c-Met antigen; assay type: binding; conditions: 1:1 Langmuir model
# T1 construct: Flag (C); His tag (6xHis) (C); made in house; host or cells: 293F cells (Invitrogen, Cat # R790-07); vector pEE6.4; c-Met gene template origene RC217003
# Description: The affinity of c-Met antibody to c-Met antigen Sema-His was detected by surface plasmon resonance (SPR) in the invention.
# Anti-mouse IgG (GE Life Sciences catalog # BR-1008-38) or anti-human IgG (GE Life Sciences catalog # BR-1008-39) antibodies were respectively diluted to 30 μg/mL and 50 μg/mL by sodium acetate solution pH 5.0 (GE Healthcare, Cat # BR-1003-51). An amino coupling kit (GE Life Sciences, Cat # BR100050) […] the test channels and control channels on a CM5 chip (GE Life Sciences catalog # BR-1000-12), and the coupling level was set at 15000 RU. The c-Met antibody was diluted with Running buffer PBS (Hyclone, Cat # SH30256.01B)+0.05% P20 (GE Life Sciences, Cat # BR-1000-54) to 1.5 μg/mL. Antigen Sema-His was diluted to 200 nM with running buffer, and then diluted at a 1:2 dilution with the same buffer until 0.78 nM was reached. The diluted antibody passed through the test channel for 1 minute at a speed of 30 μL/min, and the antigen passed through the test channels and control channels for 3 minutes at the same speed. 10 minutes after dissociation, the flow speed was adjusted to 10 μL/min, and regeneration buffer was passed through test channels and control channels for 3 minutes. Data was fitted by BiaEvaluation 4.1 after double deduction, and the fitting model was a 1:1 Langmuir model.
# T1 sequence (P08581 with tags, fused parts or gaps limits assumed): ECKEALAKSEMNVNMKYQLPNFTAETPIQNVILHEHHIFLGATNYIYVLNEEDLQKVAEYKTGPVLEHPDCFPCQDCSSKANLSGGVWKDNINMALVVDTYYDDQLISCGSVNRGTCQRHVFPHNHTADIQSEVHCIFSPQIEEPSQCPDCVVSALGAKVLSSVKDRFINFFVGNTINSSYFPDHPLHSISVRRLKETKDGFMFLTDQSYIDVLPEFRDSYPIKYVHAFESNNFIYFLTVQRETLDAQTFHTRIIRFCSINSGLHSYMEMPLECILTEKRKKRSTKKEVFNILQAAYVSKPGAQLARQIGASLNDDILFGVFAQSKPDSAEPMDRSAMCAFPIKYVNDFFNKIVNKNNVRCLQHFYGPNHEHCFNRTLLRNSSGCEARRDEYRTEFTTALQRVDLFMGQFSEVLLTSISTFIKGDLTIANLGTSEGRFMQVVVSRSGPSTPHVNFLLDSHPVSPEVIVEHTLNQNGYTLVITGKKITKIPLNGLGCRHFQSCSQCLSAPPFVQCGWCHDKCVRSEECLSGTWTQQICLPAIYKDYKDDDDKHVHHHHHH
molecule,measurement,setting,value
B1,endocytosis %,[1]; 0 h,0%
same,endocytosis %,[1]; 0.5 h,26%
same,endocytosis %,[1]; 1 h,32%
same,endocytosis %,[1]; 2 h,32%
same,endocytosis %,[1]; 4 h,31%
same,Analysis of deamination: percentage of deaminated molecules,[2],0.66%
same,Kd,[3],4 nM
